Measurements from the supplement of paper PMC10567573.

B1: ETS1 (parent)
chain: YVRDRADLNKDKPVIPAAALAGYT

Variants of: B1
Assay: protein stability index of a GFP-peptide fusion (GPS, HEK-293T) (PSI 1-6); higher = more stable
Settings: c terminus: a fixed tail appended
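Note: lentivirally expressed fusions sorted by FACS into six bins by GFP to DsRed ratio, PSI derived from sequencing read proportions per bin multiplied by bin number.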

Row | Variant | protein stability index
1 | YVRDRADLLKDKPVIPAAALAGYT | 2.81
2 | YVRDRADLNKCKPVIPAAALAGYT | 2.46
3 | YVRDRADLNKMKPVIPAAALAGYT | 2.31
4 | YVRDRADLNKVKPVIPAAALAGYT | 3.03
5 | YVRDRADLNKAKPVIPAAALAGYT | 2.28
6 | YVRDRADLNKEKPVIPAAALAGYT | 2.5
7 | YVRDRADLNKFKPVIPAAALAGYT | 2.42
8 | YVRDRADLNKQKPVIPAAALAGYT | 2.78
9 | YVRDRADLNKKKPVIPAAALAGYT | 1.77
10 | YVRDRADLNKWKPVIPAAALAGYT | 2.56
11 | YVRDRADLNKNKPVIPAAALAGYT | 2.91
12 | YVRDRADLNKSKPVIPAAALAGYT | 2.9
13 | YVRDRADLNKLKPVIPAAALAGYT | 4.14
14 | YVRDRADLNKPKPVIPAAALAGYT | 3.65
15 | YVRDRADLNKYKPVIPAAALAGYT | 2.59
16 | YVRDRADLNKGKPVIPAAALAGYT | 3.03
17 | YVRDRADLNKRKPVIPAAALAGYT | 2.17
18 | YVRDRADLNKIKPVIPAAALAGYT | 2.08
19 | YVRDRADLNKHKPVIPAAALAGYT | 3.35
20 | YVRDRADLNKTKPVIPAAALAGYT | 2.16
21 | YVRDRADLNKDKPCIPAAALAGYT | 2.54
22 | YVRDRADLNKDKPPIPAAALAGYT | 1.92
23 | YVRDRADLNKDKPSIPAAALAGYT | 2.84
24 | YVRDRADLNKDKPFIPAAALAGYT | 2.99

Row | Variant | protein stability index
25 | YVRDRADLNKDKPMIPAAALAGYT | 2.75
26 | YVRDRADLNKDKPQIPAAALAGYT | 1.4
27 | YVRDRADLNKDKPAIPAAALAGYT | 1.73
28 | YVRDRADLNKDKPKIPAAALAGYT | 2.34
29 | YVRDRADLNKDKPLIPAAALAGYT | 2.79
30 | YVRDRADLNKDKPRIPAAALAGYT | 2.67
31 | YVRDRADLNKDKPGIPAAALAGYT | 2.18
32 | YVRDRADLNKDKPNIPAAALAGYT | 2.34
33 | YVRDRADLNKDKPHIPAAALAGYT | 2.23
34 | YVRDRADLNKDKPTIPAAALAGYT | 2.66
35 | YVRDRADLNKDKPIIPAAALAGYT | 1.63
36 | YVRDRADLNKDKPEIPAAALAGYT | 1.97
37 | YVRDRADLNKDKPWIPAAALAGYT | 2.4
38 | YVRDRADLNKDKPYIPAAALAGYT | 1.8
39 | YVRDRADLNKDKPDIPAAALAGYT | 2.17
40 | YVRDRADLNKDKPVIPWAALAGYT | 3.98
41 | YVRDRADLNKDKPVIPPAALAGYT | 1.79
42 | YVRDRADLNKDKPVIPCAALAGYT | 2.97
43 | YVRDRADLNKDKPVIPVAALAGYT | 1.63
44 | YVRDRADLNKDKPVIPEAALAGYT | 2.19
45 | YVRDRADLNKDKPVIPNAALAGYT | 1.64
46 | YVRDRADLNKDKPVIPTAALAGYT | 2.11
47 | YVRDRADLNKDKPVIPLAALAGYT | 2.04
48 | YVRDRADLNKDKPVIPHAALAGYT | 2.15

Row | Variant | protein stability index
49 | YVRDRADLNKDKPVIPQAALAGYT | 1.87
50 | YVRDRADLNKDKPVIPMAALAGYT | 1.38
51 | YVRDRADLNKDKPVIPGAALAGYT | 3.1
52 | YVRDRADLNKDKPVIPKAALAGYT | 1.98
53 | YVRDRADLNKDKPVIPIAALAGYT | 2.52
54 | YVRDRADLNKDKPVIPSAALAGYT | 2.25
55 | YVRDRADLNKDKPVIPFAALAGYT | 1.76
56 | YVRDRADLNKDKPVIPYAALAGYT | 2.86
57 | YVRDRADLNKDKPVIPDAALAGYT | 1.41
58 | YVRDRADLNKDKPVIMAAALAGYT | 2.56
59 | YVRDRADLNKDKPVIVAAALAGYT | 2.44
60 | YVRDRADLNKDKPVICAAALAGYT | 2.57
61 | YVRDRADLNKDKPVIGAAALAGYT | 1.93
62 | YVRDRADLNKDKPVISAAALAGYT | 1.64
63 | YVRDRADLNKDKPVIHAAALAGYT | 2.1
64 | YVRDRADLNKDKPVIEAAALAGYT | 2.05
65 | YVRDRADLNKDKPVINAAALAGYT | 2.33
66 | YVRDRADLNKDKPVIYAAALAGYT | 2.98
67 | YVRDRADLNKDKPVIKAAALAGYT | 2.13
68 | YVRDRADLNKDKPVIRAAALAGYT | 3.04
69 | YVRDRADLNKDKPVIAAAALAGYT | 3.14
70 | YVRDRADLNKDKPVIFAAALAGYT | 3.22
71 | YVRDRADLNKDKPVIQAAALAGYT | 2.37
72 | YVRDRADLNKDKPVIIAAALAGYT | 2.23

Row | Variant | protein stability index
73 | YVRDRADLNKDKPVITAAALAGYT | 2.14
74 | YVRDRADLNKDKPVILAAALAGYT | 2.52
75 | YVRDRADLNKDKPVIDAAALAGYT | 2.54
76 | YVRDRADLNKDKPVIWAAALAGYT | 2.19
77 | YVRDRADWNKDKPVIPAAALAGYT | 2.23
78 | YVRDRADYNKDKPVIPAAALAGYT | 2.9
79 | YVRDRADLNKDKPVIPAQALAGYT | 2.84
80 | YVRDRADLNKDKPVIPAGALAGYT | 2.35
81 | YVRDRADLNKDKPVIPALALAGYT | 2.88
82 | YVRDRADLNKDKPVIPASALAGYT | 2.73
83 | YVRDRADLNKDKPVIPAVALAGYT | 1.09
84 | YVRDRADLNKDKPVIPAHALAGYT | 2.18
85 | YVRDRADLNKDKPVIPADALAGYT | 2.21
86 | YVRDRADLNKDKPVIPAFALAGYT | 1.83
87 | YVRDRADLNKDKPVIPAKALAGYT | 2.63
88 | YVRDRADLNKDKPVIPARALAGYT | 1.93
89 | YVRDRADLNKDKPVIPAPALAGYT | 3.01
90 | YVRDRADLNKDKPVIPATALAGYT | 1.93
91 | YVRDRADLNKDKPVIPAIALAGYT | 3.08
92 | YVRDRADLNKDKPVIPACALAGYT | 2.33
93 | YVRDRADLNKDKPVIPAEALAGYT | 1.88
94 | YVRDRADLNKDKPVIPANALAGYT | 2.22
